Columns and labels:
Experiment in all cases: two-hybrid library CCmax;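 note: natural log of median RNA to DNA barcode read ratio; higher means stronger binding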
4H2274-AA = biological target: T1, 4H2274-AA
T1 chain: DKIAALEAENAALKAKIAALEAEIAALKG

4H3009-AA = biological target: T2, 4H3009-AA; details: mean of both orientations
T2 chain: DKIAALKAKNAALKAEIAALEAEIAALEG

4H2473-AA = biological target: T3, 4H2473-AA; details: mean of both orientations
T3 chain: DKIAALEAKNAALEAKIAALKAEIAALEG

4H745-AA = biological target: T4, 4H745-AA; details: mean of both orientations
T4 chain: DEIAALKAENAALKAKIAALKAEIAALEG

4H2698-AA = biological target: T5, 4H2698-AA; details: mean of both orientations
T5 chain: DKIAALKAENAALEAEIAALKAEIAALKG

4H2865-AA = biological target: T6, 4H2865-AA; details: mean of both orientations
T6 chain: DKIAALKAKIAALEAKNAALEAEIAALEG

4H3130-AA = biological target: T7, 4H3130-AA; details: mean of both orientations
T7 chain: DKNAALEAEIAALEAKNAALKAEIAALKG

4H485-AA = biological target: T8, 4H485-AA; details: mean of both orientations
T8 chain: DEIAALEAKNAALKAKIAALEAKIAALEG

4H629-AA = biological target: T9, 4H629-AA; details: mean of both orientations
T9 chain: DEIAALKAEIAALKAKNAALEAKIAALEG

4H536-AA = biological target: T10, 4H536-AA; details: mean of both orientations
T10 chain: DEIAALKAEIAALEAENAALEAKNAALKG

4H3381-AA = biological target: T11, 4H3381-AA; details: mean of both orientations
T11 chain: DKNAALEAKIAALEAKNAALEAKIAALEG

4H850-AA = biological target: T12, 4H850-AA; details: mean of both orientations
T12 chain: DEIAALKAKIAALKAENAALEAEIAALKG

4H797-AA = biological target: T13, 4H797-AA; details: mean of both orientations
T13 chain: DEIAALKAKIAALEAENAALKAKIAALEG

4H3395-AA = biological target: T14, 4H3395-AA; details: mean of both orientations
T14 chain: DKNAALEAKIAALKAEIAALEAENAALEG

4H3016-AA = biological target: T15, 4H3016-AA; details: mean of both orientations
T15 chain: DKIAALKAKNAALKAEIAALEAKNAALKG

4H710-AA = biological target: T16, 4H710-AA; details: mean of both orientations
T16 chain: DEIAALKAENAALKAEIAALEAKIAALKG

4H3865-AA = biological target: T17, 4H3865-AA; details: mean of both orientations
T17 chain: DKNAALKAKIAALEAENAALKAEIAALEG

4H930-AA = biological target: T18, 4H930-AA; details: mean of both orientations
T18 chain: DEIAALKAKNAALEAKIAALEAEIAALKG

4H2438-AA = biological target: T19, 4H2438-AA; details: mean of both orientations
T19 chain: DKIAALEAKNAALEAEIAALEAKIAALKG

4H3753-AA = biological target: T20, 4H3753-AA; details: mean of both orientations
T20 chain: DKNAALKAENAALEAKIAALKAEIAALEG

4H891-AA = biological target: T21, 4H891-AA; details: mean of both orientations
T21 chain: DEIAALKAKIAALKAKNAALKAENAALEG

4H2725-AA = biological target: T22, 4H2725-AA; details: mean of both orientations
T22 chain: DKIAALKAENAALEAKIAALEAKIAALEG

4H3410-AA = biological target: T23, 4H3410-AA; details: mean of both orientations
T23 chain: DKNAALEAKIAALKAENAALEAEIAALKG

4H2649-AA = biological target: T24, 4H2649-AA; details: mean of both orientations
T24 chain: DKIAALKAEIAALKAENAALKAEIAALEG

4H3165-AA = biological target: T25, 4H3165-AA; details: mean of both orientations
T25 chain: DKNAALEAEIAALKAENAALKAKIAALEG

4H2389-AA = biological target: T26, 4H2389-AA; details: mean of both orientations
T26 chain: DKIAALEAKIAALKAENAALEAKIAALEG

4H2330-AA = biological target: T27, 4H2330-AA; details: mean of both orientations
T27 chain: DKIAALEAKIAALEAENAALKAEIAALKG

4H3697-AA = biological target: T28, 4H3697-AA; details: mean of both orientations
T28 chain: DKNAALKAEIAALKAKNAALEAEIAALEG

4H458-AA = biological target: T29, 4H458-AA; details: mean of both orientations
T29 chain: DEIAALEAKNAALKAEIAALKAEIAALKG

4H2277-AA = biological target: T30, 4H2277-AA
T30 chain: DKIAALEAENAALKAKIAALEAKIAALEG

4H909-AA = biological target: T31, 4H909-AA; details: mean of both orientations
T31 chain: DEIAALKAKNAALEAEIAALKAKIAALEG

4H3120-AA = biological target: T32, 4H3120-AA; details: mean of both orientations
T32 chain: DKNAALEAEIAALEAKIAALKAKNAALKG

4H94-AA = biological target: T33, 4H94-AA; details: mean of both orientations
T33 chain: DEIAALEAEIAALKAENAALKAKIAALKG

4H3590-AA = biological target: T34, 4H3590-AA; details: mean of both orientations
T34 chain: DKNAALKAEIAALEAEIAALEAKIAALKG

4H570-AA = biological target: T35, 4H570-AA; details: mean of both orientations
T35 chain: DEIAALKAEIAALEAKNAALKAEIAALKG

4H310-AA = biological target: T36, 4H310-AA; details: mean of both orientations
T36 chain: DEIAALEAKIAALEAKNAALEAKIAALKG

B1: 4H2274-AA (peptide)
chain: DKIAALEAENAALKAKIAALEAEIAALKG
interaction score (4H2274-AA): 2.45 | interaction score (4H3009-AA): 0.108 | interaction score (4H2473-AA): -0.485 | interaction score (4H745-AA): 0.497 | interaction score (4H2698-AA): 0.894 | interaction score (4H2865-AA): -1.31 | interaction score (4H3130-AA): -1.87 | interaction score (4H485-AA): -0.34 | interaction score (4H629-AA): -1.47 | interaction score (4H536-AA): -1.54 | interaction score (4H3381-AA): -1.35 | interaction score (4H850-AA): -1.39 | interaction score (4H797-AA): -1.27 | interaction score (4H3395-AA): -1.6 | interaction score (4H3016-AA): -1.01 | interaction score (4H710-AA): 0.53 | interaction score (4H3865-AA): -0.926 | interaction score (4H930-AA): -1.05 | interaction score (4H2438-AA): 0.189 | interaction score (4H3753-AA): -1.17 | interaction score (4H891-AA): -1.73 | interaction score (4H2725-AA): 0.181 | interaction score (4H3410-AA): -1.36 | interaction score (4H2649-AA): -1.69 | interaction score (4H3165-AA): -1.19 | interaction score (4H2389-AA): -0.987 | interaction score (4H2330-AA): -1.13 | interaction score (4H3697-AA): -1.45 | interaction score (4H458-AA): 0.0218 | interaction score (4H2277-AA): 0.21 | interaction score (4H909-AA): -1.73 | interaction score (4H3120-AA): -1.33 | interaction score (4H94-AA): -1.32 | interaction score (4H3590-AA): -0.977 | interaction score (4H570-AA): -1.8 | interaction score (4H310-AA): -1.25

From PMC10397247
